# According to PMC10755861, “Structural analysis and functional evaluation of the disordered ß–hexosyltransferase region from Hamamotoa (Sporobolomyces) singularis” (Frontiers in Bioengineering and Biotechnology, 2023):
# B1: rBHT(23–594)-HIS, recombinant ß-hexosyltransferase from Hamamotoa (Sporobolomyces) singularis, residues 23–594 (enzyme, UniProt Q564N5 23-594, looked up)
# chain: VTYPGAIPLSLTSNYETPSPTAIPLEPTPTATGTAELDALWNLVEAQYPVQTAAVTTLVTVPDDYKFEADPPSYALAGYETSEIAGLKFPKGFKFGVAGAAIQVEGAAKAEGRGPSTWDYLCHHYASTQCNNYDPDITTNHYYLYPLDFARLQHLGINTYSFSISWTRIYPLGAGYVNEAGLAHYDAVIHSAKKYGLEPVGTVFHWDTPLSLMLKYGAWQDTGDQIVKDFVTYATTVFKRYGNEVKTWFTFNEPRVFCSQNSGLPYNLTYPEGINSTSAVFRCTYNVLKAHGHAVKVYRDLVASGTIAAGEIGFKSDDNYPIPARPGNADDEESAKRHEAFRIGIFAQPVYGNGDYPDVVKETVGDMLPALTDEDKGYIKGSGDIFAIDGYRTDISHAALNGIANCIRNQSDPNWPVCEEGSDPFAHVYPSGFAIGQSADPLSSWLVNSAPFIRDQLKFLTQTYPAKGGIYFSEFGWAEDAEYDRQLLYQITWDGLRTQYLTDYLSQLLLAVHKDGINLRGALTWSFVDNWEWGLGMQQKFGFQFVNQSDPDLTRTFKLSAHAYAQFGRNHL
# modifications: N-glycosylation sites N289, N297, N431, N569 (NAG in the crystal structure); phosphorylation sites found in the crystal structure: T56, T74, T79
# notes: Expressed behind the S. cerevisiae alpha factor pre-pro leader (MFα) of pPIC9; the forward primer encodes KR-EAEA before residue 23, so some leader residues (EAEA) may be left on the N-terminus after processing (surmise); Residues 23-53 lack electron density in PDB 7L74; also called rBHT(23–594)-6XHIS; BglA; source: K. phaffii GS115, secreted into the culture medium, purified (HISTrap HP Nickel …)
# B2: rBHT(57–594)-HIS, recombinant ß-hexosyltransferase from Hamamotoa (Sporobolomyces) singularis, residues 57–594 (enzyme, UniProt Q564N5 57-594, looked up)
# chain: AELDALWNLVEAQYPVQTAAVTTLVTVPDDYKFEADPPSYALAGYETSEIAGLKFPKGFKFGVAGAAIQVEGAAKAEGRGPSTWDYLCHHYASTQCNNYDPDITTNHYYLYPLDFARLQHLGINTYSFSISWTRIYPLGAGYVNEAGLAHYDAVIHSAKKYGLEPVGTVFHWDTPLSLMLKYGAWQDTGDQIVKDFVTYATTVFKRYGNEVKTWFTFNEPRVFCSQNSGLPYNLTYPEGINSTSAVFRCTYNVLKAHGHAVKVYRDLVASGTIAAGEIGFKSDDNYPIPARPGNADDEESAKRHEAFRIGIFAQPVYGNGDYPDVVKETVGDMLPALTDEDKGYIKGSGDIFAIDGYRTDISHAALNGIANCIRNQSDPNWPVCEEGSDPFAHVYPSGFAIGQSADPLSSWLVNSAPFIRDQLKFLTQTYPAKGGIYFSEFGWAEDAEYDRQLLYQITWDGLRTQYLTDYLSQLLLAVHKDGINLRGALTWSFVDNWEWGLGMQQKFGFQFVNQSDPDLTRTFKLSAHAYAQFGRNHL
# notes: ß-hexosyltransferase (BHT, BglA) of Hamamotoa (Sporobolomyces) singularis, 594-residue polypeptide, residues 57-594; Expressed behind the MFα pre-pro leader of pPIC9 (primer encodes KR-EAEA before residue 57; leftover leader residues are a surmise); Glycosylated enzyme; also called GS115::MFα-rBht(57–594)-HIS; JB225; not shown: His6, C-terminal, kept
# B3: rBHT(32–594)-HIS, recombinant ß-hexosyltransferase from Hamamotoa (Sporobolomyces) singularis, residues 32–594 (enzyme, UniProt Q564N5 32-594, looked up)
# chain: SLTSNYETPSPTAIPLEPTPTATGTAELDALWNLVEAQYPVQTAAVTTLVTVPDDYKFEADPPSYALAGYETSEIAGLKFPKGFKFGVAGAAIQVEGAAKAEGRGPSTWDYLCHHYASTQCNNYDPDITTNHYYLYPLDFARLQHLGINTYSFSISWTRIYPLGAGYVNEAGLAHYDAVIHSAKKYGLEPVGTVFHWDTPLSLMLKYGAWQDTGDQIVKDFVTYATTVFKRYGNEVKTWFTFNEPRVFCSQNSGLPYNLTYPEGINSTSAVFRCTYNVLKAHGHAVKVYRDLVASGTIAAGEIGFKSDDNYPIPARPGNADDEESAKRHEAFRIGIFAQPVYGNGDYPDVVKETVGDMLPALTDEDKGYIKGSGDIFAIDGYRTDISHAALNGIANCIRNQSDPNWPVCEEGSDPFAHVYPSGFAIGQSADPLSSWLVNSAPFIRDQLKFLTQTYPAKGGIYFSEFGWAEDAEYDRQLLYQITWDGLRTQYLTDYLSQLLLAVHKDGINLRGALTWSFVDNWEWGLGMQQKFGFQFVNQSDPDLTRTFKLSAHAYAQFGRNHL
# notes: ß-hexosyltransferase (BHT, BglA) of Hamamotoa (Sporobolomyces) singularis, 594-residue polypeptide, residues 32-594; Expressed behind the MFα pre-pro leader of pPIC9 (primer encodes KR-EAEA before residue 32; leftover leader residues are a surmise); Glycosylated enzyme; also called GS115::MFα-rBht(32–594)-HIS; JB223; not shown: His6, C-terminal, kept
# B4: rBHT(54–594)-HIS, recombinant ß-hexosyltransferase from Hamamotoa (Sporobolomyces) singularis, residues 54–594 (enzyme, UniProt Q564N5 54-594, looked up)
# chain: TGTAELDALWNLVEAQYPVQTAAVTTLVTVPDDYKFEADPPSYALAGYETSEIAGLKFPKGFKFGVAGAAIQVEGAAKAEGRGPSTWDYLCHHYASTQCNNYDPDITTNHYYLYPLDFARLQHLGINTYSFSISWTRIYPLGAGYVNEAGLAHYDAVIHSAKKYGLEPVGTVFHWDTPLSLMLKYGAWQDTGDQIVKDFVTYATTVFKRYGNEVKTWFTFNEPRVFCSQNSGLPYNLTYPEGINSTSAVFRCTYNVLKAHGHAVKVYRDLVASGTIAAGEIGFKSDDNYPIPARPGNADDEESAKRHEAFRIGIFAQPVYGNGDYPDVVKETVGDMLPALTDEDKGYIKGSGDIFAIDGYRTDISHAALNGIANCIRNQSDPNWPVCEEGSDPFAHVYPSGFAIGQSADPLSSWLVNSAPFIRDQLKFLTQTYPAKGGIYFSEFGWAEDAEYDRQLLYQITWDGLRTQYLTDYLSQLLLAVHKDGINLRGALTWSFVDNWEWGLGMQQKFGFQFVNQSDPDLTRTFKLSAHAYAQFGRNHL
# notes: ß-hexosyltransferase (BHT, BglA) of Hamamotoa (Sporobolomyces) singularis, 594-residue polypeptide, residues 54-594; Expressed behind the MFα pre-pro leader of pPIC9 (primer encodes KR-EAEA before residue 54; leftover leader residues are a surmise); Glycosylated enzyme; also called GS115::MFα-rBht(54–594)-HIS; JB224; not shown: His6, C-terminal, kept
# What was measured:
# [1] = molecular target: the molecule itself; assay: SAXS; rBHT(23–594)-HIS in solution at 1 mg/mL and 4 mg/mL; molecular mass by the method of Rambo and Tainer
# [2] = molecular target: the molecule itself; assay: SEC; purified variants; single peak, retention time 12.5 min, calculated Mw 150 kDa; data not shown
Protein,stoichiometry N [1],stoichiometry N [2]
B1,2,–
B2,–,2
B3,–,2
B4,–,2
